Data as given in PMC8920257.

What was measured:
Experiment in all cases: SPR
ACE2 p.Asp355Asn (human) = ACE2 p.Asp355Asn (human) (UniProt Q9BYF1)
ACE2 p.Glu329Gly (human) = ACE2 p.Glu329Gly (human) (UniProt Q9BYF1)
ACE2 p.Glu35Lys (human) = ACE2 p.Glu35Lys (human) (UniProt Q9BYF1)
ACE2 p.Glu37Lys (human) = ACE2 p.Glu37Lys (human) (UniProt Q9BYF1)
ACE2 p.Gly326Glu (human) = ACE2 p.Gly326Glu (human) (UniProt Q9BYF1)
ACE2 p.Lys26Arg (human) = ACE2 p.Lys26Arg (human) (UniProt Q9BYF1)
ACE2 p.Phe40Leu (human) = ACE2 p.Phe40Leu (human) (UniProt Q9BYF1)
ACE2 p.Pro389His (human) = ACE2 p.Pro389His (human) (UniProt Q9BYF1)
ACE2 p.Ser19Pro (human) = ACE2 p.Ser19Pro (human) (UniProt Q9BYF1)
ACE2 p.Thr27Arg (human) = ACE2 p.Thr27Arg (human) (UniProt Q9BYF1)

Substance “SARS-CoV-2 Spike receptor binding domain (from UniProt P0DTC2) (domain or fragment)” has an SPR ΔΔG against ACE2 WT (ACE2 p.Asp355Asn (human)) of under -3.16 kcal/mol, an SPR ΔΔG against ACE2 WT (ACE2 p.Glu329Gly (human)) of -0.09 kcal/mol and a ΔΔG against ACE2 WT (ACE2 p.Glu329Gly (human)) of -0.06 kcal/mol. The SPR ΔΔG against ACE2 WT (ACE2 p.Glu35Lys (human)) was -0.36 kcal/mol, the ΔΔG against ACE2 WT (ACE2 p.Glu35Lys (human)) was -0.29 kcal/mol and the SPR ΔΔG against ACE2 WT (ACE2 p.Glu37Lys (human)) was -1.33 kcal/mol. For the same substance, the ΔΔG against ACE2 WT (ACE2 p.Glu37Lys (human)) was -1.25 kcal/mol, the SPR ΔΔG against ACE2 WT (ACE2 p.Gly326Glu (human)) was -0.65 kcal/mol and the ΔΔG against ACE2 WT (ACE2 p.Gly326Glu (human)) was -0.67 kcal/mol. The SPR ΔΔG against ACE2 WT (ACE2 p.Lys26Arg (human)) was 0.26 kcal/mol, the ΔΔG against ACE2 WT (ACE2 p.Lys26Arg (human)) was 0.31 kcal/mol and the SPR ΔΔG against ACE2 WT (ACE2 p.Phe40Leu (human)) was 0.11 kcal/mol. It also gave a ΔΔG against ACE2 WT (ACE2 p.Phe40Leu (human)) of 0.14 kcal/mol, an SPR ΔΔG against ACE2 WT (ACE2 p.Pro389His (human)) of 0.27 kcal/mol and a ΔΔG against ACE2 WT (ACE2 p.Pro389His (human)) of 0.12 kcal/mol. For the same substance, the SPR ΔΔG against ACE2 WT (ACE2 p.Ser19Pro (human)) was 0.59 kcal/mol and the SPR ΔΔG against ACE2 WT (ACE2 p.Thr27Arg (human)) was -0.11 kcal/mol.
